B2: chimera protein of the DNA-binding region of GAL4 and the bHLH-PAS region part of the present transcription regulatory factor (mNXF) (other)
chain: MKLLSSIEQACDICRLKKLKCSKEKPKCAKCLKNNWECRYSPKTKRSPLTRAHLTEVESRLERLEQLFLLIFPREDLDMILKMDSLQDIKALLTGLFVQDNVNKDAVTDRLASVETDMPLTLRQHRISATSSSEESSNKGQRQLTVSMYRSTKGASKARRDQINAEIRNLKELLPLAEADKVRLSYLHIMSLACIYTRKGVFFAGGTPLAGPTGLLSAQELEDIVAALPGFLLVFTAEGKLLYLSESVSEHLGHSMVDLVAQGDSIYDIIDPADHLTVRQQLTMPSALDADRLFRCRFNTSKSLRRQSSGNKLVLIRGRFHAHPPGAYWAGNPVFTAFCAPLEPRPRPGPGPGPGPGPASLFLAMFQSRHAKDLALLDVSESVLIYLGFERSELLCKSWYGLLHPEDLAQASSQHYRLLAESGDIQAEMVVRLQAKHGGWTWIYCMLYSEGPEGPFTANNYPISDT
notes: Expressed in HeLa cells for the two-hybrid assay; also called Gal4-mNXF; Gal4-NXF

Assay [1] addresses B2. Kind of assay: mammalian two-hybrid assay in HeLa cells (Gal4-NXF + VP16-NXF, luciferase reporter).
Assay [2] deals with T1, chimera protein of the VP16 transcription activating region and the bHLH-PAS region part of Clock (human, UniProt O15516 1-530).
T1 construct: domain: bHLH-PAS region part; also called VP16-Clock; pVP16-Clock (bHLH-PAS) product
T1 sequence: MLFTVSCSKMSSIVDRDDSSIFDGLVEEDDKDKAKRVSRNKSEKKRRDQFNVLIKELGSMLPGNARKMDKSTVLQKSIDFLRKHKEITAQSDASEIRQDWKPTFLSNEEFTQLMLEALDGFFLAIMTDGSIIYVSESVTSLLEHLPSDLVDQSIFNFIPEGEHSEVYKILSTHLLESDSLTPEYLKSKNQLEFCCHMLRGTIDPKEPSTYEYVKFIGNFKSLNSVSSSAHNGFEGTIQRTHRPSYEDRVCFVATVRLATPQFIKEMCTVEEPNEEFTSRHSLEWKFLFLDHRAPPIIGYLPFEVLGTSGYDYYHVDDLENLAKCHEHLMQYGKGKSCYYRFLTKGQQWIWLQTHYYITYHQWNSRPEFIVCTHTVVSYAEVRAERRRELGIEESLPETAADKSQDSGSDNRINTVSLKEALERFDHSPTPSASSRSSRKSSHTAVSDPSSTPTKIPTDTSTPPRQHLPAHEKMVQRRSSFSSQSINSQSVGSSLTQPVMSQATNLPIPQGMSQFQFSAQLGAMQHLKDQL
Description: mammalian two-hybrid assay in HeLa cells (Gal4-NXF + VP16-X, luciferase reporter).

In assay [3] the target is T2, chimera protein of the VP16 transcription activating region and the bHLH-PAS region part of Sim2 (human, UniProt Q14190 1-500).
T2 construct: domain: bHLH-PAS region part; also called VP16-Sim2; pVP16-Sim2 (bHLH-PAS) product
T2 sequence: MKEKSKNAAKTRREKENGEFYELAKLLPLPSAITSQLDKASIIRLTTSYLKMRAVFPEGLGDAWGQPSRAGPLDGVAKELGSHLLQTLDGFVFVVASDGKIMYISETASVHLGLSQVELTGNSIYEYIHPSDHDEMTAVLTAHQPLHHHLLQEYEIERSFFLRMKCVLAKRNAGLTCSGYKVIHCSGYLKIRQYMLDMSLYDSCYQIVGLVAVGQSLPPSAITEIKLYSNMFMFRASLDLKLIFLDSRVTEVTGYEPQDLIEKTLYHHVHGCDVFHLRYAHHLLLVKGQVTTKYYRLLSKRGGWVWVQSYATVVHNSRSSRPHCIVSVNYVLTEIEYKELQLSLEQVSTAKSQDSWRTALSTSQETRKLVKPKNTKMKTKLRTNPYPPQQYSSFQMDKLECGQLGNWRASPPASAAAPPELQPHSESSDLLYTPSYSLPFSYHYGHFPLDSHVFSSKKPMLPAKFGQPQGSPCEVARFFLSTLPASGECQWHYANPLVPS
Described as above.

B1: chimera protein of the VP16 transcription activating region and the bHLH-PAS region part of the present transcription activating factor (mNXF) (other)
chain: MYRSTKGASKARRDQINAEIRNLKELLPLAEADKVRLSYLHIMSLACIYTRKGVFFAGGTPLAGPTGLLSAQELEDIVAALPGFLLVFTAEGKLLYLSESVSEHLGHSMVDLVAQGDSIYDIIDPADHLTVRQQLTMPSALDADRLFRCRFNTSKSLRRQSSGNKLVLIRGRFHAHPPGAYWAGNPVFTAFCAPLEPRPRPGPGPGPGPGPASLFLAMFQSRHAKDLALLDVSESVLIYLGFERSELLCKSWYGLLHPEDLAQASSQHYRLLAESGDIQAEMVVRLQAKHGGWTWIYCMLYSEGPEGPFTANNYPISDT
notes: also called VP16-NXF; pVP16-NXF (bHLH-PAS) product
For B1, the binding result in assay [1] is on record as “no binding”.

With B2, the binding result in assay [2] and in assay [3] was “no binding” throughout.

Source of the values: patent US20060216705A1 (SUMITOMO CHEMICAL, published 2006).
